Assay results taken from patent US20160264684A1, “GLYCAN-INTERACTING COMPOUNDS AND METHODS OF USE” (SIAMAB THERAPEUTICS, INC., priority 2013, published 2016).

Legend:
[1] = Pathological evaluation of organs (H&E); type: in vivo, mouse
Method: At the end of the study described in Example 22, three mice from the vehicle control group and five mice that received 7G9-1A8 were chosen at random for post-study pathology assessment. Brain, colon, intestine, heart, kidney, liver, lung, mandibular salivary gland, pancreas, spleen, stomach, adrenal gland and thyroid gland organs were collected from each mouse. The organs were fixed in formalin (VWR; Radnor, Pa.) for about 48 hours, transferred to 70% ethanol (Sigma-Aldrich; St. Louis, Mo.), and then processed for standard H&E staining.
The H&E stained tissue slides were examined for pathology review. Liver sections from each animal had multifocal inflammation with or without concomitant hepatocellular necrosis. The histo-pathological changes were minimal to mild in severity. There was no appreciable difference in the morphology of lesions among vehicle control group mice and mice that received 7G9-1A8.

E3-STn cells = assay: E3-STn transfected murine breast tumor allograft model, tumor volume; type: in vivo, mouse; conditions: 7G9-1A8 25 mg/kg ip twice weekly 3 weeks, Paclitaxel daily 5 days
Method: 3 test articles were evaluated during the study.
Standard deviation values are listed in parenthesis.

[2] = mouse, in vivo
Method: 50 female Balb/cmice were inoculated with E3-STn cells to cause STn-expressing tumor formation when they were 5 weeks old. Mice were housed in individually ventilated microisolator cages, and maintained under pathogen-free conditions with irradiated feed and autoclaved water. […] Beginning on the first day of the study, body weight and tumor volumes were recorded twice weekly. 33 mice with mean tumor volume between 100 and 150 mm^3 were selected for randomization.
Antibodies and vehicle control were administered by intraperitoneal injection, twice weekly for 7 weeks.
The average weight of mice in each treatment group was also determined on days 1, 5, 8, 12, 15, 19, 22, 26, 29, 33, 36, 40, 43, 47 and 50 following the first administration of each test article (see Table 19). The percent gain or loss over initial weight values is listed in parentheses.

[3] = E3-STn allograft model, complete blood count (CBC); type: in vivo, mouse; design: Red blood cells / White blood cells: unit not given here; conditions: CBC at end of study, antibody-treated mice
Method: At the end of the study, a complete blood count (CBC) was obtained for 5 mice treated with antibody as well as 3 mice treated with vehicle control. Blood was collected from all mice via terminal cardiac puncture and processed for plasma. Blood was placed in EDTA microtainer tubes (BD & Co., Franklin Lakes, N.J.) then centrifuged. Plasma layers were then removed and snap frozen in cryo vials (Thermo-Fisher Scientific, Rochester, N.Y.) and stored at −80° C. until analysis. Analysis was carried out to look for levels of a variety of factors.

B1: 7G9-1A8: 7G9-1A8 IgG2b κ antibody; heavy chain variable domain SEQ ID NO 12, light chain SEQ ID NO 9 (antibody, V domains shown)
VH: QVQLKESGPGLVAPSQNLSITCTVSGFSLTSYGVNWVRQPPGKGLEWLGVIWGDGSTNYHSALISRLIISKENSKSQVFLKLNSLQTNDTATYYCTKGFVYWGQGTLVTVSA
VL: QIVLTQSPAIMSASPGEKVTMTCSASSSVSYMHWYQQKSGTSPKRWIFDTSKLASGVPARFSGSGSGTSYSLTISSMEAEDAATYYCQQWSSNLLTFGAGTKLELK
- liver histo-pathology vs vehicle control group ([1]; 5 treated, 3 vehicle mice): no significant difference between the groups
- neutrophil aggregation in the muscularis mucosa of the stomach ([1]; seen in two vehicle control mice): not observed
- Average Tumor Volume (E3-STn cells; day 1 of treatment): 112.4 mm^3
- Average Tumor Volume (E3-STn cells; day 4 of treatment): 148.7 mm^3
- Average Tumor Volume (E3-STn cells; day 6 of treatment): 161.9 mm^3
- Average Tumor Volume (E3-STn cells; day 8 of treatment): 152.8 mm^3
- Average Tumor Volume (E3-STn cells; day 11 of treatment): 136.3 mm^3
- Average Tumor Volume (E3-STn cells; day 13 of treatment): 118.4 mm^3
- Average Tumor Volume (E3-STn cells; day 15 of treatment): 105.1 mm^3
- Average Tumor Volume (E3-STn cells; day 18 of treatment): 99.5 mm^3
- Average Tumor Volume (E3-STn cells; day 20 of treatment): 91.7 mm^3
- Average Tumor Volume (E3-STn cells; day 22): 105.2 mm^3
- Average Tumor Volume (E3-STn cells; day 26): 102.8 mm^3
- Average Tumor Volume (E3-STn cells; day 27): 107.4 mm^3
- Average Tumor Volume (E3-STn cells; day 29): 147.1 mm^3
- Average Tumor Volume (E3-STn cells; day 32): 160.6 mm^3
- Average Tumor Volume (E3-STn cells; day 34): 164.7 mm^3
- Average Tumor Volume (E3-STn cells; day 36): 212.1 mm^3
- Average Tumor Volume (E3-STn cells; day 39): 206.6 mm^3
- Average Tumor Volume (E3-STn cells; day 41): 235.3 mm^3
- weight gain over the course of treatment as compared to vehicle control [2]: higher percent gain in weight
- % Lymphocytes [3]: 44.4%
- % Monocytes [3]: 4.6%
- % Neutrophils (Segmented) [3]: 51.0%
- Hematocrit [3]: 46.9%
- Hemoglobin [3]: 16.0 g/dL
- Lymphocytes [3]: 5.6 10^9/L
- Mean Corpuscular Hemoglobin [3]: 16.2 pg
- Mean Corpuscular Hemoglobin Concentration [3]: 34.2 g/dL
- Mean Corpuscular Volume [3]: 47.4 fL
- Mean platelet volume [3]: 7.4 fL
- Monocytes [3]: 0.7 10^9/L
- Neutrophils [3]: 7.6 10^9/L
- Platelet Cell Distribution Width [3]: 32.2%
- Platelet count [3]: 712.2 10^3
- Red Cell Distribution Width [3]: 19.0%
- Red blood cells [3]: 9.9
- White blood cells ([3]; blood by terminal cardiac puncture): 13.9
